# Results as given in paper PMC3695782.
# Molecular target: HIV-1 reverse transcriptase WT (Human immunodeficiency virus type 1) (UniProt P04585+P04585)
# Experiment: EMSA
# Settings: EFdA-MP at primer 3' end; Footprinting: 120 mM sodium cacodylate pH 7, 20 mM NaCl, 6 mM MgCl2, 1 uM EFdA-TP, 7 min pre-incubation with dTTP, then 1 mM ammonium iron sulfate 5 min …
substance,measurement,value
T/P-EFdA-MP (gel shift),binding signal (fold stronger than K65R),1.3
